Measured values published in patent publication US20130101549A1 (Biogen, published 2013).

Key:
[1] = target: human LTβR on tumor cells (human, UniProt P36941 31-435); assay: cell-based or functional assay
human HER2-Fc [2] = target: T1, human HER2-Fc (human, UniProt P04626 23-652); assay: ELISA on coated HER2-Fc
T1 construct: Bought from R&D Systems: homodimeric fusion of the HER2 extracellular domain and human IgG1 Fc; also called human ErbB2-Fc; rhErbB2-Fc; not shown: Fc fragment of human IgG1
Method: (§1) Human and murine ErbB2-Fc were obtained from R&D Systems. Wells of 96-well plates were coated with 2 ug/ml or 0.2 ug/ml of human or murine HER2-Fc by incubation overnight at 4-8° C. with either of these six proteins (80 ul/well of a 0.2 or 2 ug/ml solution in PBS). Wells were emptied, filled completely with a solution of PBS with 1% BSA (blocking buffer) and incubated at room temperature for 1 hour. Wells were emptied, washed twice PBS containing 0.05% Tween 20 (PBST) and filled with the samples (80 ul/well of 3× dilution series of the standard and supernatants in blocking buffer) prepared in another 96-well plate. After a 2-hour incubation at room temperature, the wells were emptied, washed three times with PBST and filled with a solution of HRP-conjugated goat pAbs anti-human kappa chain (80 ul/well of a 2000-fold dilution in blocking buffer). After 1-hour incubation, the wells were emptied and filled with a solution of HRP substrate prepared freshly. The color was left to develop for 3 minutes and was stopped by addition of an equal volume of 1N H₂SO₄. Absorbance was measured at 450 nm using a Plate Reader (SpectraMax, Molecular Devices). The data was processed and graphs were created using SoftMax Pro software.

human HVEM-Ig [3] = target: T2, human HVEM-Ig (human, UniProt Q92956 39-202); assay: ELISA on coated HVEM-Ig
T2 construct: Expressed and purified in house; also called HVEM-Fc; Herpes virus entry mediator-Ig
T2 sequence (looked up): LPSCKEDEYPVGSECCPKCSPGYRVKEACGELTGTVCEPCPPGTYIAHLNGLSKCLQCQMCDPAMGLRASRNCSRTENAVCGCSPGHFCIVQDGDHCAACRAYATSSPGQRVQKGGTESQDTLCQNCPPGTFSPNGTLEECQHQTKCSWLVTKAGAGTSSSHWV
Method: as §1
Human and murine HVEM-Ig were expressed and purified in house.

human LTβR-Ig [4] = target: T3, human LTβR-Ig (human, UniProt P36941 31-227); assay: ELISA on coated LTbR-Ig
T3 construct: Expressed and purified in house; also called hLTbR-Ig; human LTBR-Ig
T3 sequence (P36941 31-227): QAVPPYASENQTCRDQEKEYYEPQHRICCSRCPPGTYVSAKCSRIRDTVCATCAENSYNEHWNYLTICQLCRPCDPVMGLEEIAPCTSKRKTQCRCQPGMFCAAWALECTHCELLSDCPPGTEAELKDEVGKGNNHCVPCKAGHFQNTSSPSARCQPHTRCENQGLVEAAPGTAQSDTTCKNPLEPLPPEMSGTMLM
Method: as §1
Human and murine LTBR-Ig were expressed and purified in house.

[5] = target: T4, human HER2/ErbB2 on cells (human, UniProt P04626 23-1255); assay: FACS on HER2-expressing cells
T4 construct: whole, on cells; also called hHER2/ErbB2; wild type HER2/ErbB

human HVEM-Ig [6] = target: T2, human HVEM-Ig; assay: FACS (HVEM column of Table 2; format not told there)
human LTβR-Ig [7] = target: T3, human LTβR-Ig; assay: FACS (LTbR column of Table 2; format not told there)
human HER2-Fc [8] = target: T1, human HER2-Fc; assay: Octet biolayer interferometry, receptor-Fc on anti-human Fc biosensor, culture supernatant
Method: (§2) Anti-human Fc-specific biosensors (Fortebio SKU 18-0001) were hydrated in OB (1×PBS supplemented with 1 mg/ml BSA, 0.05% NaN₃, and 0.02% TWEEN 20) for at least five minutes prior to assays. For each assay, the respective receptor—Fc fusion was diluted to 10 μg/ml in OB and allowed to bind to the biosensors for five minutes. The sensors were then incubated in the indicated culture supernatant for an additional five minutes, and subsequently transferred to fresh wells […].

human LTβR-Ig [9] = target: T3, human LTβR-Ig; assay: as above
Method: as §2

human HVEM-Ig [10] = target: T2, human HVEM-Ig; assay: as above
Method: as §2

murine HER2-Fc [11] = target: T5, murine HER2-Fc (mouse; human, UniProt P70424 23-653); assay: ELISA on coated muHER2-Fc, HRP anti-human kappa; the number is C of the printed 4-P fit (A 0.005, B 1.068, D 0.84, R^2 0.999); x axis: Fab equivalent concentration
T5 construct: extracellular domain; Bought from R&D Systems; also called murine ErbB2-Fc; not shown: Fc fragment of human IgG1
T5 sequence (P70424 23-653): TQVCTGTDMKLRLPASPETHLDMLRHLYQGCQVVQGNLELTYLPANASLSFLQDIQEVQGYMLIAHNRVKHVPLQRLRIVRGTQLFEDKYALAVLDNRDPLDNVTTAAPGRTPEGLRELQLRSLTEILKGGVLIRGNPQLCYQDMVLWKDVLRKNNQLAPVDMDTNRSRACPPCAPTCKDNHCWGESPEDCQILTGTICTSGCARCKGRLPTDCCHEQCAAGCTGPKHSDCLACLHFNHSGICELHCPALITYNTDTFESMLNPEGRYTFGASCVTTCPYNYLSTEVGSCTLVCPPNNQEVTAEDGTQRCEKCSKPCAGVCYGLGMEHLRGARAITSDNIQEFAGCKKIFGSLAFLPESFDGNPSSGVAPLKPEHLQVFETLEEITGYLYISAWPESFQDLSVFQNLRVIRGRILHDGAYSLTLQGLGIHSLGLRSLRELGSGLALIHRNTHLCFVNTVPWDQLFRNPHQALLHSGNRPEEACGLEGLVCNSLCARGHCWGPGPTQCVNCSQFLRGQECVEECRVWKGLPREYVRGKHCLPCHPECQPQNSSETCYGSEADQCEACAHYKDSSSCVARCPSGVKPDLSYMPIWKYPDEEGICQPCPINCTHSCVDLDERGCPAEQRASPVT

human HER2-Fc [12] = target: T1, human HER2-Fc; assay: ELISA on coated huHER2-Fc, HRP anti-human kappa; the number is C of the printed 4-P fit (A -0.059, B 0.832, D 1.098, R^2 0.998); x axis: Fab equivalent concentration
human HER2-Fc [13] = target: T1, human HER2-Fc; assay: ELISA on coated huHER2-Fc, HRP anti-human kappa; the number is C of the printed 4-P fit (A 0.006, B 1.142, D 0.89, R^2 1); x axis: Fab equivalent concentration
murine HER2-Fc [14] = target: T5, murine HER2-Fc; assay: ELISA on coated muHER2-Fc, HRP anti-human kappa; the number is C of the printed 4-P fit (A 0.008, B 1.027, D 0.896, R^2 1); x axis: Fab equivalent concentration
Method: as §1, with “Wells” for “Human and murine ErbB2-Fc were obtained from R&D Systems. Wells”, “coated” for “coated with 2 ug/ml or 0.2 ug/ml of human or murine HER2-Fc”, “goat antibodies against human kappa chain” for “either of these six proteins”, “5” for “0.2 or 2”
Human and murine HER2-Fc (homodimeric fusion proteins consisting of the extracellular domain of HER2 and the Fc fragment of human IgG1) were obtained from R&D Systems. […]

human LTBR-mIgG fusion = target: T6, human LTBR-mIgG fusion; assay: sandwich ELISA after incubation at 200 ng/ml in human serum (cold or 37°C overnight): HER2-Fc on the plate, human LTBR-mIgG, HRP anti-mouse IgG; the signal needs both bindings at once
T6 construct: kept apart from m25 (human Fc); not shown: exact end of the LTBR part
T6 sequence (chain, as listed by the source limits assumed): as the sequence (P36941 31-227) above
Method: An ELISA assay was developed to detect LIGHT-Ab fusions after incubation with human sera. Briefly, 200 ng/mL of LIGHT-Ab fusions were incubated overnight in human serum at 37° C. The serum was assayed in sandwich ELISA as follows. HER2-Fc was immobilized to a solid surface, and was used to capture the LIGHT-Ab fusions. The serum incubated fusion proteins were added to the solid surface. Detection was effected using a human LTBR-mIgG fusion to bind to the LIGHT moiety of the fusion. Horseradish peroxidase (HRP) labeled anti-mouse IgG was used to detect bound LIGHT-Ab fusions.

Sequence of human LTβR on tumor cells (P36941 31-435): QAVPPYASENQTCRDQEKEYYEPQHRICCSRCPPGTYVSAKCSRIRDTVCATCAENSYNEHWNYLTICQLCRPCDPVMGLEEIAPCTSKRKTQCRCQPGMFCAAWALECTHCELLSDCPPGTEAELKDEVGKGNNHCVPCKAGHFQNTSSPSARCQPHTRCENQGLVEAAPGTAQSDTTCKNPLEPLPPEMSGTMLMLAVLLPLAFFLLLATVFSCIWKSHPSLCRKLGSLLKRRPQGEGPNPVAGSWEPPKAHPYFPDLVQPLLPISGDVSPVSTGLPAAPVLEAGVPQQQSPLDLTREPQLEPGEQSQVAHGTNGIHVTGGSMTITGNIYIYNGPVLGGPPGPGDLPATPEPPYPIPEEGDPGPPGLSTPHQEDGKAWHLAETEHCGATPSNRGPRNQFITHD

B1: 71F10 Fab-hLIGHT fusion with the delta 4 linker (BIIB71F10-130) (other)
heavy: EVQLLESGGGLVQPGGSLRLSCAASGFTFSSYGMVWVRQAPGKGLEWVSSISSSGGLTWYADSVKGRFTISRDNSKNTLYLQMNSLRAEDTAVYYCASPPGIAVARDYWGQGTLVTVSSASTKGPSVFPLAPSSKSTSGGTAALGCLVKDYFPEPVTVSWNSGALTSGVHTFPAVLQSSGLYSLSSVVTVPSSSLGTQTYICNVNHKPSNTKVDKKVEPKSCDKLHWRLGEMVTRLPDGPAGSWQERRSHEVNPAAHLTGANSSLTGSGGPLLWETQLGLAFLRGLSYHDGALVVTKAGYYYIYSKVQLGGVGCPLGLASTITHGLYKRTPRYPEELELLVSQQSPCGRATSSSRVWWDSSFLGGVVHLEAGEEVVVRVLDERLVRLRDGTRSYFGAFMV
light: DIQMTQSPSSLSASVGDRVTITCRASQGISNYLAWYQQKPGKVPKLLIYAASTLQSGVPSRFSGSGSGTDFTLTISSLQPEDVATYYCQKYNSALLTFGGGTKVEIKRTVAAPSVFIFPPSDEQLKSGTASVVCLLNNFYPREAKVQWKVDNALQSGNSQESVTEQDSKDSTYSLSSTLTLSKADYEKHKVYACEVTHQGLSSPVTKSFNRGEC
notes: Fab heavy chain - linker - human LIGHT extracellular part; assembles as a trimer of Fab-LIGHT units; also called pBIIB71F10-130; LIGHT fusion #130
How did the “fold difference of gene expression, treated/untreated HT29 cells (qRT-PCR): CCL2 (MCP-1)” value [1] turn out when B1 was run?
The value was 1050 fold.

What about the “fold difference of gene expression, treated/untreated HT29 cells (qRT-PCR): CCL5 (RANTES)” value [1] of the same binder?
The value was 1220 fold.

And the “fold difference of gene expression, treated/untreated HT29 cells (qRT-PCR): CCL7 (MCP-3)” value [1]?
Its value is -527 fold.

And the “fold difference of gene expression, treated/untreated HT29 cells (qRT-PCR): CCL21” value [1]?
The value was 546 fold.

And the “fold difference of gene expression, treated/untreated HT29 cells (qRT-PCR): CCR4” value [1]?
The value was 1650 fold.

What about the “fold difference of gene expression, treated/untreated HT29 cells (qRT-PCR): CXCL2” value [1] of the same binder?
Its value is 1130 fold.

What about the “fold difference of gene expression, treated/untreated HT29 cells (qRT-PCR): CXCL3” value [1] of the same binder?
The value was 1090 fold.

What about the “fold difference of gene expression, treated/untreated HT29 cells (qRT-PCR): CXCL5 (ENA-78/LIX)” value [1] of the same binder?
Its value is 1810 fold.

What about the “fold difference of gene expression, treated/untreated HT29 cells (qRT-PCR): CXCL9” value [1] of the same binder?
The value was 675 fold.

What about the “fold difference of gene expression, treated/untreated HT29 cells (qRT-PCR): CXCL10 (IP-10)” value [1] of the same binder?
Its value is 5270 fold.

What about the “fold difference of gene expression, treated/untreated HT29 cells (qRT-PCR): CXCL11 (I-TAC/IP9)” value [1] of the same binder?
Its value is 1730 fold.

And the “fold difference of gene expression, treated/untreated HT29 cells (qRT-PCR): IFNA2” value [1]?
Its value is 193 fold.

And the “fold difference of gene expression, treated/untreated HT29 cells (qRT-PCR): IL5” value [1]?
The value was 940 fold.

What about the “fold difference of gene expression, treated/untreated HT29 cells (qRT-PCR): IL8” value [1] of the same binder?
Its value is 373 fold.

And the “fold difference of gene expression, treated/untreated HT29 cells (qRT-PCR): IL10RA” value [1]?
Its value is 3440 fold.

And the “fold difference of gene expression, treated/untreated HT29 cells (qRT-PCR): LTB” value [1]?
Its value is 2910 fold.

What about the “fold difference of gene expression, treated/untreated HT29 cells (qRT-PCR): TNF” value [1] of the same binder?
The value was 7370 fold.

What about the EC50 (human HER2-Fc [2]) of the same binder?
Its EC50 is 0.05 nM.

What about the EC50 (human HVEM-Ig [3]) of the same binder?
Its EC50 is 0.01 nM.

And the EC50 (human LTβR-Ig [4])?
Its EC50 is 0.01 nM.

And the EC50 [5]?
Its EC50 is 0.5 nM.

And the EC50 (human HVEM-Ig [6])?
Its EC50 is 0.5 nM.

And the EC50 (human LTβR-Ig [7])?
Its EC50 is 0.2 nM.

What about the koff (human HER2-Fc [8]) of the same binder?
The koff was 0.000112 s⁻¹.

What about the koff (human LTβR-Ig [9]) of the same binder?
Its koff is 0.000168 s⁻¹.

And the koff (human HVEM-Ig [10])?
The koff was 0.000122 s⁻¹.

And the EC50 (murine HER2-Fc [11])?
Its EC50 is 0.0114 mg/L.

And the EC50 (human HER2-Fc [12])?
Its EC50 is 0.00955 mg/L.

B2: 71F10 Fab-hLIGHT fusion with the G4S delta 4 linker (BIIB71F10-131) (other)
heavy: EVQLLESGGGLVQPGGSLRLSCAASGFTFSSYGMVWVRQAPGKGLEWVSSISSSGGLTWYADSVKGRFTISRDNSKNTLYLQMNSLRAEDTAVYYCASPPGIAVARDYWGQGTLVTVSSASTKGPSVFPLAPSSKSTSGGTAALGCLVKDYFPEPVTVSWNSGALTSGVHTFPAVLQSSGLYSLSSVVTVPSSSLGTQTYICNVNHKPSNTKVDKKVEPKSCDKGGGGSLHWRLGEMVTRLPDGPAGSWQERRSHEVNPAAHLTGANSSLTGSGGPLLWETQLGLAFLRGLSYHDGALVVTKAGYYYIYSKVQLGGVGCPLGLASTITHGLYKRTPRYPEELELLVSQQSPCGRATSSSRVWWDSSFLGGVVHLEAGEEVVVRVLDERLVRLRDGTRSYFGAFMV
light: B1 light
notes: Trimer of Fab-LIGHT units; also called pBIIB71F10-131
For B2, which EC50 (human HER2-Fc [2]) is on record?
The EC50 was 0.05 nM.

And the EC50 (human HVEM-Ig [3])?
The EC50 was 0.01 nM.

And the EC50 (human LTβR-Ig [4])?
Its EC50 is 0.01 nM.

What about the EC50 [5] of the same binder?
Its EC50 is 0.5 nM.

What about the EC50 (human HVEM-Ig [6]) of the same binder?
The EC50 was 0.5 nM.

And the EC50 (human LTβR-Ig [7])?
The EC50 was 0.2 nM.

And the koff (human HER2-Fc [8])?
The koff was 0.000307 s⁻¹.

And the koff (human LTβR-Ig [9])?
Its koff is 0.000183 s⁻¹.

And the EC50 (human HER2-Fc [13])?
Its EC50 is 0.00608 mg/L.

What about the EC50 (murine HER2-Fc [14]) of the same binder?
Its EC50 is 0.0139 mg/L.

Does B2 bind (human LTBR-mIgG fusion)?
Result: binds
